Results from US20220305133A1 (CSL INNOVATION, published 2022).

T1: murine G-CSF receptor (G-CSFR) on mouse NFS-60 cells (mouse, UniProt P40223 26-837)
T1 sequence (looked up): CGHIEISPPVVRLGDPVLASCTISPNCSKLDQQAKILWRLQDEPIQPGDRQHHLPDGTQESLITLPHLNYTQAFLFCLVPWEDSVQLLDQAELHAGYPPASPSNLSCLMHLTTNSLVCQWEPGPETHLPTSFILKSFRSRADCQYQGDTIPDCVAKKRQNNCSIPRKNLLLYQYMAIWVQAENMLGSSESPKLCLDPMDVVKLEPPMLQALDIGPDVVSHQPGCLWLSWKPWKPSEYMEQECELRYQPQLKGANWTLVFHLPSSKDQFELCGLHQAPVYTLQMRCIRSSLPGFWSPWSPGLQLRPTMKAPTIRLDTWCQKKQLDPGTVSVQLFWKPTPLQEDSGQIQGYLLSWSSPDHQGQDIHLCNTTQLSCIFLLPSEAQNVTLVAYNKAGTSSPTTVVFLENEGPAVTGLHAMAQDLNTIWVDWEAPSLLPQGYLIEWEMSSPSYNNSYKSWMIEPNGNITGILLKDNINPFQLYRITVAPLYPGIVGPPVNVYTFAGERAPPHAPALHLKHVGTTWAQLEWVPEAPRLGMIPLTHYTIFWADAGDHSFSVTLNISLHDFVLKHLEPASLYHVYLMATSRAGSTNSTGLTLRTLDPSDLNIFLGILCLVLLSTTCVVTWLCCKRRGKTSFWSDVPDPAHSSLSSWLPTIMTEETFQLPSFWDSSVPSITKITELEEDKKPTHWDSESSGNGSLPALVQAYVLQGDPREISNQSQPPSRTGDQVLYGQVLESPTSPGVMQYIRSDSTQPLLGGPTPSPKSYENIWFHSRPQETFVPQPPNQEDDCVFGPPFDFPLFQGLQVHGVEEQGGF

T2: Factor XIIa (activated Factor XII) (UniProt P00748 20-615, limits assumed)
T2 sequence (looked up): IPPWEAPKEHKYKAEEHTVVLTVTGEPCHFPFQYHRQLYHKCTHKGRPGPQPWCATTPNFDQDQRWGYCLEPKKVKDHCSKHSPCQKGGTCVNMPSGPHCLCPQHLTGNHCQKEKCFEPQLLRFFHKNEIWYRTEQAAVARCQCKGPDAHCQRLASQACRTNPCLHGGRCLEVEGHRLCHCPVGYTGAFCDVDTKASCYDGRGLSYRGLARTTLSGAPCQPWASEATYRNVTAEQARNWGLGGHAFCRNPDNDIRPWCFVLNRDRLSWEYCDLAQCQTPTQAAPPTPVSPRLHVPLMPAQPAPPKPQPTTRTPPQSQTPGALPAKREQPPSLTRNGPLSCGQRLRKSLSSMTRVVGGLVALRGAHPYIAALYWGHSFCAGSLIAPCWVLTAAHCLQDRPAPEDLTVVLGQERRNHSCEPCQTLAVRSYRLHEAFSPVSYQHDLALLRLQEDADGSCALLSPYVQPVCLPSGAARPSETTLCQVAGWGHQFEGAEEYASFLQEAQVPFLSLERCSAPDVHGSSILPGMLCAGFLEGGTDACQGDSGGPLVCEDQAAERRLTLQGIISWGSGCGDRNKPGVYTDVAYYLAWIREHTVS

B1: VR81, mouse monoclonal IgG1κ antibody against the extracellular domain of murine G-CSFR (antibody, V domains shown)
VH: EVQLLESGGGLVQPGGSLRLSCAASGFTFSYYAMWWVRQAPGKGLEWVSLIDVSGGVQLYADSVKGRFTISRDNSKNTLYLQMNSLRAEDTAVYYCAKPLIGTRDAFDIWGQGTMVTVSS
VL: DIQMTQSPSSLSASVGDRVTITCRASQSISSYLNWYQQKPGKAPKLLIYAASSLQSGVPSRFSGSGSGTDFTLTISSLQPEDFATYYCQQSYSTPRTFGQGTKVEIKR
B2: ch3F7-mG1L-aFXII (3F7) (antibody, V domains shown)
VH: EVQLLESGGGLVQPGGSLRLSCAASGFTFSKYIMQWVRQAPGKGLEWVSGIRPSGGTTVYADSVKGRFTISRDNSKNTLYLQMNSLRAEDTAVYYCARALPRSGYLISPHYYYYALDVWGQGTTVTVSS
VL: QSELTQPPSASGTPGQRVTISCSGSSSNIGRNYVYWYQQVPGTAPKLLIYSNNQRPSGVPDRFSGSKSGTSASLVISGLRSEDEADYYCAAWDASLRGVFGGGTKLTVLG

Experiments:
[1] = target: T1, murine G-CSF receptor (G-CSFR) on mouse …; assay: cell-based or functional assay
[2] = target: T2, Factor XIIa (activated Factor XII); assay: cell-based or functional assay

Binder | IC50 (nM), inhibition of mG-CSF-dependent proliferation of mouse NFS-60 cells, stimulated with 0.1 ng/ml mG-CSF [1] | IC50 (nM), inhibition of mG-CSF-dependent proliferation of mouse NFS-60 cells, stimulated with 1.0 ng/ml mG-CSF [1] | IC50 (nM), chromogenic assay of Factor XIIa activity [2]
B1 | 0.00104 nM | 0.00323 nM | –
B2 | – | – | 17.2 nM
